Experiment: yeast display, Sf9 membrane polyspecificity reagent, FACS + sequencing; frameworks hold sequencing errors
Summary of the method: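 In a synthetic yeast display library (Saccharomyces cerevisiae BJ5465), nanobody expression was induced with galactose for 36–48 hours. FACS gates were set low and high (top ~1%) using anti-HA fluorescence for expression and streptavidin fluorescence for binding of the Sf9 membrane reagent. Each polyreactivity label is drawn from the gate of origin.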

Row | Sequence | polyreactivity (PSR sort gate)
1 | QVQLVESGGGLVQAGGSLRLSCAASGSIFYRYAMGWYRQAPGKERELVAAITSTGSRTFYADSVKVRFTISRDNAKNTVYLQMNSLKPEDTAVYYCAADARYNGYHGVDYWGQGTLVTVSS | high polyreactivity
2 | QVQLVESGGGLVQAGGILRLSSAASGFIFKANAMGWSRQAPGKERELVAVITRRGGSTYYADSVKGSFTISRDNAKNTVYLQMNSLKREDTAVYYSAKEGSARYGPSDAYDYWGQGTQVTVSS | high polyreactivity
3 | QVQLVESGGGLVQAGGSLRLSCAASGFTFKYYAMGWYRQAPGKERELVAAISSGVSTNYADSVKGRFTISRDNAKNTVYLQMNSLKPEDTAVYYCNAEVFWWDQWYDYWGQGTQVTVSS | high polyreactivity
4 | QVQLVESGGGLVQAGGSLRLSCAASGRTFAHNAMGWYRQAPGKERELVAAITWSGGTTYYADSVKGRFTISRDNAKNTVYLQMNSLKPEDTAVYYCNTYSYQPDPKYDYWGQGTQVTVSS | low polyreactivity
5 | QVQLVESGGGLVQAGGSLRLSCAASGSIFASYAMGWYRQAPGKERELVAAISRSGGSTYYADSVKGRFTISRDNAKNTVYLQMNSLKPEDTAVYYCATGKIREDDYWGQGTQVTVSS | high polyreactivity
6 | QVQLVESGGGLVQAGGSLRLSCAASGRTFLVNAMGWYRQAPGKERELVAAISQRGGSTDYADSVKGRFTISRDNAKNTVYLQMNSLKPEDTAVYYCAVRWGYLYDYWGQGTQVTVSS | low polyreactivity
7 | QVQLLESGGGLVQAGGSLRLSCAASGRIFASYAMGWYRQAPGKARELVAAISTGGNTYYADSVKGRFTISRDNAKNTVYLQMNSLKPEDTAVYDCAALSGAHEHFVEYDYWGQGTQVTVSS | low polyreactivity
8 | QVHLVESGGGLVQAGGILRLRSAASGSTVYGYAMGWYRQAPGKERELVAAITRSGGSTYYADSVKGRFTISRDNATNKVYLQMNSQKPEDTEFYYCNKYGYKGGDGYDYWGQRTQVTVSS | high polyreactivity
9 | QVQLVESGGGLVQAGGSLRLSCAASGSTFGPNGMGWYRHAPGKERELVARIDRIGGGTYYADSVKGRFTISRDNANNTVYLQMNSLKPEDTAVYYCAAYGPSPFSQGYAKGDYWGQGTQVTVSS | low polyreactivity
10 | QVQLVESGGGLVQAGGSLRLSCAASGLTFVYYAMGWYRQAPGKERELVAVISSSGGSTYYADSVKGRFTISRDNAKNTVYLQMNSLKPEDTAVYYCAAPRQVYYQTDNDYWGQGTQVTVSS | high polyreactivity
11 | QVQLVESGGGLVQAGGSLRLSCAASGSIFFWNDMGWYRQAPGKERELVAAISWSGGSTSYADSVKGRFTISRDNAKNTVYLQMNSLKPEDTAVYYCAAEYTYGSPYDYWGQGTQVTVSS | low polyreactivity
12 | QVQLVESGGGLVQAGGSLRLSCAASGITFITYTMGWYRQEPGKERELVAGISSGGSTYYADSVKGRFTISRDNAKNTVYLQMNSLKPEDTAVYYCAAEFAGWGYYWFDYWGQGTQVTVSS | high polyreactivity
13 | QVQLVESGGGLVQAGGSLRLSCAASGFILNWYAMGWYRQAPGKERELVAAISWTTSDTYYADSVKGRFTISRDNAKNTVYLQMNSLKPEDTAVYYCNAKFYAYYVTFVLHYDYWGQGTQVTVSS | low polyreactivity
14 | QVQLVESGGGLVQAGGRLRLTCAASASIFHYNSMGWYRQATGKQRELVAAITSGGSTYADSVKGRFTISRDNAKNTVYLQMNSLKPEDTAVYYCNADSVGPRGDLGYWGQGTQVTVSS | low polyreactivity
15 | QVQLVESGGGLVQAGGSLRLSCAASGSTFKINAMGWYRQAPGKERELVAAIRSRGGGTYYADSVKGRFTISRDNAKNTVYLQMNSLKPEDTAVYYCAATRRYHFDYWGQGTQVTVSS | high polyreactivity
16 | QVQLVESGGGLVQAGGSLRLSCAASGFTFVRNTMGWYRQATGKERELVAAISRSGGSTYYADSVKGRFTISRDNAKNTVYFKIYSLKPEDSAVYYCNAYRYVHYDWGHGTQVTVSS | high polyreactivity
17 | QVQLVESGRGLVQAGGSLRLSCAASARTFPIYAMGCYRQAPWKEREFVAAITYSGGSTYYADSVKGRFTISRDNAKNTVYLQMNSLKPEDTAVYYCAVDGTKPYWHQRYDYSGQGTQVTVSS | low polyreactivity
